In US20240376196A1 (HEFEI TG IMMUNOPHARMA, published 2024):

How the values were obtained:
[1] = target: T1, human CD112 extracellular region His tag fusion protein (human, UniProt Q92692 32-360); experiment: competition ELISA, CD112-His coated, blocked ligand CD226-Biotin, HRP-streptavidin, OD450
T1 construct: Bought from Acro; only its extracellular domain stood in the assay; also called CD112-His; CD112 extracellular domain His tag fusion protein; not shown: His tag
T1 sequence: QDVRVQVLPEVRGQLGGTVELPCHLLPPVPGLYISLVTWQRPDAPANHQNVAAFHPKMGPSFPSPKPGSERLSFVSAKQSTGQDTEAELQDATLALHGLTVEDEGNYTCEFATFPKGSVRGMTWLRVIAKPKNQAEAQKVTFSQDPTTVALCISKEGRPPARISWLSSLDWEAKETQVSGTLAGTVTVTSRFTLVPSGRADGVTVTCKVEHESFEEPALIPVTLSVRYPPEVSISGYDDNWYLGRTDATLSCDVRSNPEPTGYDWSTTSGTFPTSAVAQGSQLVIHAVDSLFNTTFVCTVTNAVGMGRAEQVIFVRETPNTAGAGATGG
Procedure: (§1) The ELISA experiment was used to determine the blocking characteristic of the murine antibody CD112 9G11 antibody.
(§2) The human CD112-His protein (purchased from Acro) was diluted to 2 μg/ml with PBS buffer and added to a 96-well plate in a volume of 100 μl/well and left overnight at 4° C. The PBS buffer solution was sucked off from the 96-well plate. The plate was washed 6 times with PBST (pH 7.2, PBS containing 0.1 vol % of Tween 20) buffer solution. 200 μL of PBS containing 10% BSA was added per well and incubated at 37° C. for 2 hours for blocking. The blocking solution was removed and the plate was washed 6 times with PBST. […] The reaction system was removed. The plate was washed 6 times with PBST. 100 μL of HRP (horseradish peroxidase)-labeled Streptavidin secondary (purchased from Southern Biotech) antibody diluted with PBST containing 0.05% BSA (diluted at 1:5000) per well and incubated for 1 h at 37° C. The plate was washed 6 times with PBST, and 80 μL of TMB (tetramethylbenzidine) was added per well. After 3 min of incubation at room temperature, 80 μL of 4M sulfuric acid was added per well to terminate the reaction. The absorbance was read at […] with a microplate reader.

[2] = target: T1, human CD112 extracellular region His …; experiment: competition ELISA, CD112-His coated, blocked ligand CD112R-Fc-Biotin, HRP-streptavidin, OD450
Procedure: as §1, §2

[3] = target: T1, human CD112 extracellular region His …; experiment: competition ELISA, CD112-His coated, blocked ligand TIGIT-Biotin, HRP-streptavidin, OD450
Procedure: as §1, §2

IC50 (read off the curve) [1]: ~6 µg/mL | IC50 (read off the curve) [2]: ~0.5 µg/mL | IC50 (read off the curve) [3]: ~0.5 µg/mL
B1: murine monoclonal antibody 9G11 (antibody, mouse IgG2a, kappa)
heavy: DVKLVESGGGLVKLGGSLKLSCAASGFTFSSYYMSWVRQTPEKRLELVAAINSQGGSTYYPDTVKGRFTISRDNAKNTLYLQMSSLKSEDTGLYYCARSDYDWAWFAYWGQGTLVTVSAAKTTAPSVYPLAPVCGDTTGSSVTLGCLVKGYFPEPVTLTWNSGSLSSGVHTFPAVLQSDLYTLSSSVTVTSSTWPSQSITCNVAHPASSTKVDKKIEPRGPTIKPCPPCKCPAPNLLGGPSVFIFPPKIKDVLMISLSPIVTCVVVDVSEDDPDVQISWFVNNVEVHTAQTQTHREDYNSTLRVVSALPIQHQDWMSGKEFKCKVNNKDLPAPIERTISKPKGSVRAPQVYVLPPPEEEMTKKQVTLTCMVTDFMPEDIYVEWTNNGKTELNYKNTEPVLDSDGSYFMYSKLRVEKKNWVERNSYSCSVVHEGLHNHHTTKSFSRTPGK
light: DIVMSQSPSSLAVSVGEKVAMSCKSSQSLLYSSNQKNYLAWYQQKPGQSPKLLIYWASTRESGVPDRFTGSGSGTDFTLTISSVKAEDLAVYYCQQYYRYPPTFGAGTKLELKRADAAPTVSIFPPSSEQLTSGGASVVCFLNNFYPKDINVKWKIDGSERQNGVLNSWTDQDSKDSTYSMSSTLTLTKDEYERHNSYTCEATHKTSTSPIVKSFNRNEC
notes: also called 9G11 antibody; CD112 murine antibody 9G11
